Tested on: peptide library, one residue held at a place counted from the S/T acceptor
Test: relative phosphorylation of the sub-library (ratio to the mean residue at this position); higher = residue favoured
Conditions: human
How it was run: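 In 384-well plates, purified recombinant kinases (human or orthologue constructs) were incubated for 90 min under kinase-specific conditions with 50 μM biotinylated degenerate peptide sub-libraries and 50 μM ATP spiked with γ-32P-ATP. Each sub-library fixed a single residue at one position around a central Ser/Thr. Relative sub-library phosphorylation, measured by phosphorimaging and densitometry of streptavidin membrane spots, is given as a ratio to the mean residue at that position.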

TAOK1, construct: aa1-356, sequence (Q7L7X3 1-356, looked up): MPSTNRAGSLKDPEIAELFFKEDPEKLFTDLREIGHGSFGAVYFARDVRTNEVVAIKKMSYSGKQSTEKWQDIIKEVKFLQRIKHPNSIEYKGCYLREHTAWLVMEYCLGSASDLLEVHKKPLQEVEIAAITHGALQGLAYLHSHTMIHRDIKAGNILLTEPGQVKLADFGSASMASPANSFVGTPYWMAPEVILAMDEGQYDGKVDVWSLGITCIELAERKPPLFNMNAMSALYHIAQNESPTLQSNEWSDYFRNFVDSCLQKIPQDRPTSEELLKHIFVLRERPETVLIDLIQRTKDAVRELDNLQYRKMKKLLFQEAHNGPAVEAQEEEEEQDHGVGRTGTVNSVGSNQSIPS
STK11, construct: Full length, sequence (Q15831 whole entry, looked up): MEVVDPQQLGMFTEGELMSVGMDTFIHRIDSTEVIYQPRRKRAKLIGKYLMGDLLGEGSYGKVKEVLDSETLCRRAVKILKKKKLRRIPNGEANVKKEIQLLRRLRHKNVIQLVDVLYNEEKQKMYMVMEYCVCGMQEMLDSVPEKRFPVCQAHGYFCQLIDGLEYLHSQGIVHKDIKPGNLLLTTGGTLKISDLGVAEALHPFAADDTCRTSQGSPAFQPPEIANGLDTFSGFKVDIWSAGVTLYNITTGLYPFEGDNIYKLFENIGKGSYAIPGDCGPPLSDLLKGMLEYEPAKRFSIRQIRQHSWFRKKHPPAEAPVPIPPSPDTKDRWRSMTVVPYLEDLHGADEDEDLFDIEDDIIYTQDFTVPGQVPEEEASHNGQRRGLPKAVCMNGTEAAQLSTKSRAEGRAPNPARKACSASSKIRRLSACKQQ
STK32C, construct: aa66-end, sequence (Q86UX6 66-486, looked up): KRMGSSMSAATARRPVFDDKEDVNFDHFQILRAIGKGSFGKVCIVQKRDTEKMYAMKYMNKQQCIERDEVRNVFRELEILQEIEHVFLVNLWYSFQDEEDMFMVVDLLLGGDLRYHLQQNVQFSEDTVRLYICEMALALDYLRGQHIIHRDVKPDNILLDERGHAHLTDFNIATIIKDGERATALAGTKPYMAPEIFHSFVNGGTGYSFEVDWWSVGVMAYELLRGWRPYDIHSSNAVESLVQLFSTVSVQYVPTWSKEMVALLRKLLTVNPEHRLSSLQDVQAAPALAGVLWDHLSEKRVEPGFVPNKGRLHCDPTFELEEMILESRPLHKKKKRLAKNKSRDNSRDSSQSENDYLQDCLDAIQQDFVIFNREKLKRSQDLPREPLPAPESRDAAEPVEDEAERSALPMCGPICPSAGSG

STK11, construct: Full length (from UniProt Q15831)
relative phosphorylation
Conditions | at +1 | at +2 | at +3 | at +4 | at -1 | at -2 | at -3 | at -4 | at -5
A fixed | 1.07 | 1.17 | 0.932 | 1.03 | 1.34 | 0.926 | 0.956 | 0.936 | 1.22
D fixed | 0.613 | 0.987 | 0.787 | 0.832 | 0.726 | 0.407 | 0.289 | 0.773 | 0.827
E fixed | 0.417 | 0.598 | 0.688 | 0.75 | 0.874 | 0.338 | 0.312 | 0.738 | 0.641
F fixed | 0.801 | 0.907 | 0.891 | 0.898 | 0.582 | 0.932 | 1.81 | 1.5 | 0.939
G fixed | 1.26 | 1.12 | 1.62 | 1.31 | 0.854 | 0.82 | 1.99 | 1.06 | 1.28
H fixed | 1.27 | 1.22 | 1.36 | 1.13 | 1.22 | 0.924 | 1.17 | 1.13 | 1.07
I fixed | 0.653 | 0.711 | 0.579 | 0.741 | 0.349 | 1.81 | 0.441 | 0.485 | 0.492
K fixed | 0.647 | 0.595 | 0.892 | 1.11 | 1.59 | 0.867 | 0.95 | 0.857 | 1.49
L fixed | 0.974 | 0.701 | 0.766 | 0.952 | 0.777 | 2.39 | 1.14 | 0.627 | 0.566
M fixed | 1.16 | 0.714 | 0.699 | 0.813 | 1.3 | 1.12 | 1.48 | 0.685 | 0.775
N fixed | 1.53 | 1.07 | 1.21 | 1.08 | 1.22 | 1.06 | 0.721 | 0.859 | 1.19
P fixed | 0.597 | 1.86 | 1.55 | 1.71 | 0.472 | 0.709 | 1.16 | 1.27 | 1.86
Q fixed | 1.57 | 0.922 | 1.14 | 1.17 | 1.62 | 0.836 | 0.728 | 0.799 | 0.901
R fixed | 1.34 | 0.692 | 1.02 | 0.953 | 1.84 | 1.19 | 0.765 | 0.828 | 1.27
V fixed | 0.654 | 0.882 | 0.7 | 0.724 | 0.495 | 1.06 | 0.385 | 0.498 | 0.532
W fixed | 1.36 | 1.66 | 1.15 | 1 | 0.848 | 0.712 | 1.29 | 2.99 | 1.17
Y fixed | 1.07 | 1.19 | 1.01 | 0.796 | 0.897 | 0.903 | 1.41 | 0.959 | 0.775
pThr fixed | 0.539 | 0.947 | 0.782 | 0.571 | 0.36 | 0.852 | 0.662 | 0.713 | 0.84
pTyr fixed | 0.43 | 0.743 | 0.736 | 0.581 | 0.559 | 0.553 | 0.746 | 0.632 | 0.897

STK32C, construct: aa66-end (from UniProt Q86UX6)
relative phosphorylation
Conditions | at +1 | at +2 | at +3 | at +4 | at -1 | at -2 | at -3 | at -4 | at -5
A fixed | 0.586 | 0.613 | 0.769 | 0.982 | 0.776 | 0.864 | 0.945 | 1.11 | 1.1
D fixed | 0.55 | 0.69 | 0.689 | 0.866 | 0.807 | 0.64 | 0.957 | 1.38 | 1.18
E fixed | 1.12 | 1.13 | 0.957 | 1.46 | 0.767 | 0.801 | 1.03 | 1.24 | 0.887
F fixed | 2.08 | 1.21 | 1.08 | 0.741 | 0.739 | 1.04 | 0.611 | 0.759 | 0.924
G fixed | 0.541 | 0.564 | 0.682 | 0.907 | 1.26 | 0.918 | 0.985 | 1.42 | 1.32
H fixed | 0.588 | 1.04 | 1.1 | 1.02 | 0.849 | 0.895 | 0.645 | 0.763 | 0.862
I fixed | 1.92 | 1.03 | 1.51 | 0.836 | 0.592 | 0.773 | 0.758 | 0.812 | 0.912
K fixed | 0.671 | 0.572 | 1.05 | 1.19 | 1.14 | 0.826 | 0.951 | 0.962 | 1.05
L fixed | 0.965 | 1.19 | 0.968 | 0.832 | 0.809 | 1.33 | 0.772 | 0.756 | 0.954
M fixed | 1.77 | 1.09 | 0.944 | 0.892 | 1.09 | 1.12 | 0.745 | 0.94 | 0.923
N fixed | 0.651 | 0.755 | 0.836 | 0.992 | 1.04 | 0.841 | 0.76 | 0.93 | 0.882
P fixed | 0.399 | 0.362 | 0.54 | 1.21 | 1.73 | 1.09 | 1.04 | 1.14 | 1.06
Q fixed | 1.18 | 0.714 | 0.917 | 1.07 | 1.08 | 0.824 | 0.796 | 0.838 | 0.779
R fixed | 1.06 | 0.743 | 1.23 | 1.25 | 1.97 | 2.49 | 3.68 | 1.38 | 1.43
V fixed | 1.14 | 0.809 | 1.33 | 0.798 | 0.779 | 0.745 | 0.814 | 0.883 | 0.854
W fixed | 0.863 | 2.44 | 1.21 | 1.05 | 0.672 | 0.887 | 0.698 | 0.86 | 0.954
Y fixed | 0.919 | 2.05 | 1.18 | 0.899 | 0.909 | 0.911 | 0.804 | 0.829 | 0.927
pThr fixed | 1.03 | 2.66 | 3.27 | 2.05 | 1.08 | 1.28 | 7.04 | 1.72 | 1.18
pTyr fixed | 2.11 | 71.5 | 5.77 | 9.82 | 1.41 | 2.55 | 1.39 | 1.07 | 1.07

TAOK1, construct: aa1-356 (from UniProt Q7L7X3)
relative phosphorylation
Conditions | at +1 | at +2 | at +3 | at +4 | at -1 | at -2 | at -3 | at -4 | at -5
A fixed | 0.401 | 0.732 | 0.799 | 0.651 | 0.775 | 1.05 | 0.861 | 0.969 | 0.986
D fixed | 0.16 | 0.494 | 0.336 | 0.409 | 0.645 | 0.589 | 0.515 | 0.911 | 0.93
E fixed | 0.122 | 0.282 | 0.296 | 0.421 | 0.345 | 0.42 | 0.59 | 0.969 | 0.816
F fixed | 1.53 | 0.505 | 0.853 | 0.835 | 1.07 | 1.74 | 0.817 | 0.95 | 0.933
G fixed | 0.352 | 0.705 | 1.06 | 0.773 | 1.47 | 1.42 | 1.73 | 1.29 | 1.18
H fixed | 0.855 | 1.11 | 0.901 | 1.17 | 1.52 | 0.583 | 0.99 | 1.04 | 1.08
I fixed | 1.83 | 0.612 | 0.692 | 0.786 | 0.381 | 0.577 | 0.533 | 0.696 | 0.757
K fixed | 0.504 | 2.83 | 2.32 | 1.79 | 1.15 | 1.02 | 2.24 | 1.29 | 1.36
L fixed | 1.85 | 0.54 | 0.809 | 0.727 | 1.08 | 0.629 | 0.554 | 0.728 | 0.773
M fixed | 2.05 | 0.721 | 0.686 | 0.861 | 1.45 | 0.92 | 0.661 | 0.873 | 0.88
N fixed | 0.398 | 1.46 | 0.87 | 0.805 | 1.31 | 0.9 | 0.875 | 0.999 | 0.982
P fixed | 0.319 | 0.777 | 1.13 | 0.711 | 0.47 | 0.858 | 0.988 | 1.01 | 1.02
Q fixed | 0.461 | 0.837 | 0.762 | 0.759 | 0.746 | 0.742 | 0.879 | 0.937 | 0.844
R fixed | 0.559 | 3.26 | 2.89 | 2.44 | 1.44 | 1.08 | 1.81 | 1.39 | 1.24
V fixed | 1.21 | 0.723 | 0.602 | 0.635 | 0.419 | 0.658 | 0.505 | 0.765 | 0.821
W fixed | 2.88 | 0.622 | 1.08 | 1.76 | 0.996 | 1.13 | 1.06 | 1.05 | 1.21
Y fixed | 1.52 | 0.794 | 0.916 | 1.46 | 1.73 | 2.68 | 1.39 | 1.13 | 1.18
pThr fixed | 0.365 | 0.32 | 0.327 | 0.386 | 0.306 | 0.469 | 0.667 | 0.78 | 0.881
pTyr fixed | 0.295 | 0.337 | 0.45 | 0.432 | 1.56 | 0.733 | 0.622 | 0.777 | 0.963

Source: the supplement of paper PMC9876800
